Test [1] concerns the target Gre2p-SpyTag003 Loop B (Saccharomyces cerevisiae) (UniProt Q12068). The experiment in a line: isopeptide bond formation, 5 µM each, PBS pH 7.5, 25 °C, SDS-PAGE densitometry.
Test [2] deals with sfGFP-SpyTag003 Loop A. Described as above.
Test [3] has as its target sfGFP-SpyTag003 Loop A. The experiment in a line: isopeptide bond formation, SDS-PAGE densitometry; reference SpyTag003 as a terminal fusion with SpyCatcher003.

Our source for the second-order rate constant and fold slower than SpyTag003 as a terminal fusion values is patent publication US20240182530A1.

UniProt Q12068, sequence (Q12068 other isoform, or with tags, fused parts or gaps): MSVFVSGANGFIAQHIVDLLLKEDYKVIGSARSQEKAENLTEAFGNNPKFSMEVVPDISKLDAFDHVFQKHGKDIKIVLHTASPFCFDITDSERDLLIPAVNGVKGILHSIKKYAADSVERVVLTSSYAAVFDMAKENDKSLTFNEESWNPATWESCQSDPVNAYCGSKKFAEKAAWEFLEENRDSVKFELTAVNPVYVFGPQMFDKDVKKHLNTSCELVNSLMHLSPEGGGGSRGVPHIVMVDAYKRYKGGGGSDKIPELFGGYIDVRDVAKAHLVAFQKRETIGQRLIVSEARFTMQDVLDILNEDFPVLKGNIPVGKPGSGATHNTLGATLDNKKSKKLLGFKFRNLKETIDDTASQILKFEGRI

As for SpyCatcher003 (designed binder), the second-order rate constant in test [1] came to 93 M⁻¹ s⁻¹; with sfGFP-SpyTag003 Loop A [2] it was 87 M⁻¹ s⁻¹. In addition, the fold slower than SpyTag003 as a terminal fusion in the test with sfGFP-SpyTag003 Loop A [3] stood at 6000 fold.
